Measurements taken from article PMC2956685, “The 14-3-3ζ Protein Binds to the Cell Adhesion Molecule L1, Promotes L1 Phosphorylation by CKII and Influences L1-Dependent Neurite Outgrowth” (PLoS ONE, 2010).

Molecular target: His-L1ICD, non-phosphorylated (intracellular domain of L1) (mouse, UniProt P11627 1144-1260)
Experiment: cell-based or functional assay

Sequence of His-L1ICD, non-phosphorylated (intracellular domain of L1) (P11627 1144-1260): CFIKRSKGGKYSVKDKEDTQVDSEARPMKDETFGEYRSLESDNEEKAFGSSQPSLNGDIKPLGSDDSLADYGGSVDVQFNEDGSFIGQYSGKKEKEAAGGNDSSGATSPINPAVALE

phosphorylation of L1ICD by CKII in vitro (densitometry of the phospho-L1ICD band, 0 to 180 min) after preincubation with GST-14-3-3ζ against GST alone: ~3 fold
B1: GST-14-3-3ζ (natural protein, UniProt P63104 1-245, looked up)
chain: MDKNELVQKAKLAEQAERYDDMAACMKSVTEQGAELSNEERNLLSVAYKNVVGARRSSWRVVSSIEQKTEGAEKKQQMAREYREKIETELRDICNDVLSLLEKFLIPNASQAESKVFYLKMKGDYYRYLAEVAAGDDKKGIVDQSQQAYQEAFEISKKEMQPTHPIRLGLALNFSVFYYEILNSPEKACSLAKTAFDEAIAELDTLSEESYKDSTLIMQLLRDNLTLWTSDTQGDEAEAGEGGEN
